Consider two substances from US20090098124A1 (MacroGenics, published 2009).

Like-named read-outs stand apart in the source and are kept apart here.

In assay [1] the target is soluble FcγRIIIA 158F (human) (UniProt P08637). Description: SPR (BIAcore) steady-state analysis, ch4D5 antibody captured on immobilised ErbB2/Fc-aglycosyl chimera, soluble FcγRIIIA F158 (printed 3aF150) injected at 0.2-[…]. For orientation: In SPR one partner is held on a chip, and binding of the other changes the refractive index at the surface.
For assay [2], the target named is soluble FcγRIIIA 158V (human) (UniProt P08637). Description: SPR (BIAcore) steady-state analysis, ch4D5 antibody captured on immobilised ErbB2/Fc-aglycosyl chimera, soluble FcγRIIIA V158 (printed 3aV150) injected at 0.1-[…].
Assay [3] concerns the target soluble monomeric FcγRIIIA (extracellular region joined to linker-AVITAG), allele not stated (human) (UniProt P08637). The experiment in a line: SPR.
Assay [4] deals with soluble dimeric FcγRIIB (extracellular domain fused to hinge-CH2-CH3 of human IgG2) (human) (UniProt P31994). Description: SPR.
Assay [5] has the same target. Description: SPR. This is another data set of the same source.
Assay [6] deals with soluble monomeric FcγRIIIA (extracellular region joined to linker-AVITAG), allele not stated (human) (UniProt P08637). Description: SPR. This is another data set of the same source.
In assay [7] the target is soluble dimeric FcγRIIB (extracellular domain fused to hinge-CH2-CH3 of human IgG2) (human) (UniProt P31994). The experiment in a line: ELISA. (In general: In an ELISA, binding on a coated surface is turned into a signal by an enzyme label.)
Assay [8] deals with soluble monomeric FcγRIIIA (extracellular region joined to linker-AVITAG), allele not stated (human) (UniProt P08637). Description: ELISA.

Chain of soluble dimeric FcγRIIB (extracellular domain fused to hinge-CH2-CH3 of human IgG2) (human) (P31994 43-217): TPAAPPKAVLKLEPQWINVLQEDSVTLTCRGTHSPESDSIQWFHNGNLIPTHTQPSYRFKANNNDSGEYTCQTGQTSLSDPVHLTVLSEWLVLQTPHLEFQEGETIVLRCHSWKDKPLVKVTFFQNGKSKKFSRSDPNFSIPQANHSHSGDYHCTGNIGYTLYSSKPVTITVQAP
Chain of soluble monomeric FcγRIIIA (extracellular region joined to linker-AVITAG), allele not stated (human) (P08637 17-208): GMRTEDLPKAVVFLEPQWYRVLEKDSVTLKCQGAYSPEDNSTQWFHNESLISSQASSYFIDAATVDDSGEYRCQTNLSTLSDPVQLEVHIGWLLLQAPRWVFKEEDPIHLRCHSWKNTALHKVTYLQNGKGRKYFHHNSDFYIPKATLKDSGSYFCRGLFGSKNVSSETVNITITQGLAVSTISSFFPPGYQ
Chain of soluble FcγRIIIA 158F (human) (P08637 17-208): as above

As usually defined, the Kd is the free concentration of one partner at which half of the binding sites on the other are occupied at equilibrium, for simple one-to-one binding. For the substance ch4D5 wild type (IgG1) (antibody), the Kd in assay [1] was determined as 1540 nM; in assay [2] it was 36 µM.

Take ch4-4-20 wild type (antibody): the Kd stood at 319 nM in assay [3], 61.4 nM in assay [4], 94 nM in assay [5] and 198 nM in assay [6]. The ELISA OD in assay [7] stood at 0.4 OD; in assay [8] it was 0.5 OD. The ELISA IIIA binding in assay [8] is 1 fold.
